For one test, the target named is MUC1 TRD-Tn (3). Kind of test: SPR; Biacore 2000; MUC1 TRD models 2-4 immobilised on a CM5 chip by maleimide coupling through a C-terminal cysteine; SN-131 Fab injected; bivalent binding model. Background: Surface plasmon resonance follows binding to a sensor surface in real time, without labels.
A further test has as its target MUC1-ST (4). The description is as above.

Drawing on publication PMC10398351, “Structural and molecular insight into antibody recognition of dynamic neoepitopes in membrane tethered MUC1 of pancreatic cancer cells and secreted exosomes” (RSC Chemical Biology, 2023), this text covers Kd for one molecule.

B1: SN-131 Fab (Fab, V domains shown)
VH: QVQLQQSGAELARPGASVKLSCKASGYTFTNYGLSWVKQRTGQGLEWIGENHPGSGIIYHNEKFRGKATLTADKSSSTAYVQLSSLTSEDSAVYFCARSSGTRGFAYWGQGTLVTVSA
VL: DVLMTQTPLSLPVSLGDQASISCRSSQSIVHSNGNTYLEWYLQKPGQSPKLLIYKVSNRFSGVPDRFSGSGSGTDFTLKISRVEAEDLGVYYCFQGSHGPWTFGGGTKLEIK
B1: the Kd turned out to be 3.78 nM with MUC1 TRD-Tn (3) and 1.58 nM with MUC1-ST (4).
